From PMC7808953 (Redox Biology, 2020)

Molecular target: the molecule itself
Test: native gel or EMSA

B1: hypochlorite-treated α2-macroglobulin (natural protein)
chain: SVSGKPQYMVLVPSLLHTETTEKGCVLLSYLNETVTVSASLESVRGNRSLFTDLEAENDVLHCVAFAVPKSSSNEEVMFLTVQVKGPTQEFKKRTTVMVKNEDSLVFVQTDKSIYKPGQTVKFRVVSMDENFHPLNELIPLVYIQDPKGNRIAQWQSFQLEGGLKQFSFPLSSEPFQGSYKVVVQKKSGGRTEHPFTVEEFVLPKFEVQVTVPKIITILEEEMNVSVCGLYTYGKPVPGHVTVSICRKYSDASDCHGEDSQAFCEKFSGQLNSHGCFYQQVKTKVFQLKRKEYEMKLHTEAQIQEEGTVVELTGRQSSEITRTITKLSFVKVDSHFRQGIPFFGQVRLVDGKGVPIPNKVIFIRGNEANYYSNATTDEHGLVQFSINTTNVMGTSLTVRVNYKDRSPCYGYQWVSEEHEEAHHTAYLVFSPSKSFVHLEPMSHELPCGHTQTVQAHYILNGGTLLGLKKLSFYYLIMAKGGIVRTGTHGLLVKQEDMKGHFSISIPVKSDIAPVARLLIYAVLPTGDVIGDSAKYDVENCLANKVDLSFSPSQSLPASHAHLRVTAAPQSVCALRAVDQSVLLMKPDAELSASSVYNLLPEKDLTGFPGPLNDQDNEDCINRHNVYINGITYTPVSSTNEKDMYSFLEDMGLKAFTNSKIRKPKMCPQLQQYEMHGPEGLRVGFYESDVMGRGHARLVHVEEPHTETVRKYFPETWIWDLVVVNSAGVAEVGVTVPDTITEWKAGAFCLSEDAGLGISSTASLRAFQPFFVELTMPYSVIRGEAFTLKATVLNYLPKCIRVSVQLEASPAFLAVPVEKEQAPHCICANGRQTVSWAVTPKSLGNVNFTVSAEALESQELCGTEVPSVPEHGRKDTVIKPLLVEPEGLEKETTFNSLLCPSGGEVSEELSLKLPPNVVEESARASVSVLGDILGSAMQNTQNLLQMPYGCGEQNMVLFAPNIYVLDYLNETQQLTPEIKSKAIGYLNTGYQRQLNYKHYDGSYSTFGERYGRNQGNTWLTAFVLKTFAQARAYIFIDEAHITQALIWLSQRQKDNGCFRSSGSLLNNAIKGGVEDEVTLSAYITIALLEIPLTVTHPVVRNALFCLESAWKTAQEGDHGSHVYTKALLAYAFALAGNQDKRKEVLKSLNEEAVKKDNSVHWERPQKPKAPVGHFYEPQAPSAEVEMTSYVLLAYLTAQPAPTSEDLTSATNIVKWITKQQNAQGGFSSTQDTVVALHALSKYGAATFTRTGKAAQVTIQSSGTFSSKFQVDNNNRLLLQQVSLPELPGEYSMKVTGEGCVYLQTSLKYNILPEKEEFPFALGVQTLPQTCDEPKAHTSFQISLSVSYTGSRSASNMAIVDVKMVSGFIPLKPTVKMLERSNHVSRTEVSSNHVLIYLDKVSNQTLSLFFTVLQDVPVRDLKPAIVKVYDYYETDEFAIAEYNAPCSKDLGNA
modifications: modified by hypochlorite (NaOCl); residues not given
stoichiometry N: 2
